Assay results taken from US6245531.

Assays:
[1] = target: T1, Ecdysone receptor EcR (878 aa ORF, Table 2) (Drosophila melanogaster) (UniProt P34021); test: pulldown; settings: anti-EcR immunoprecipitation on magnetic beads; 180 mM KCl EcR buffer pH 7.0, poly dI/dC, 25 C; no hormone stated; antibody dependent; scale: fold preference over average vector sequences
T1 sequence: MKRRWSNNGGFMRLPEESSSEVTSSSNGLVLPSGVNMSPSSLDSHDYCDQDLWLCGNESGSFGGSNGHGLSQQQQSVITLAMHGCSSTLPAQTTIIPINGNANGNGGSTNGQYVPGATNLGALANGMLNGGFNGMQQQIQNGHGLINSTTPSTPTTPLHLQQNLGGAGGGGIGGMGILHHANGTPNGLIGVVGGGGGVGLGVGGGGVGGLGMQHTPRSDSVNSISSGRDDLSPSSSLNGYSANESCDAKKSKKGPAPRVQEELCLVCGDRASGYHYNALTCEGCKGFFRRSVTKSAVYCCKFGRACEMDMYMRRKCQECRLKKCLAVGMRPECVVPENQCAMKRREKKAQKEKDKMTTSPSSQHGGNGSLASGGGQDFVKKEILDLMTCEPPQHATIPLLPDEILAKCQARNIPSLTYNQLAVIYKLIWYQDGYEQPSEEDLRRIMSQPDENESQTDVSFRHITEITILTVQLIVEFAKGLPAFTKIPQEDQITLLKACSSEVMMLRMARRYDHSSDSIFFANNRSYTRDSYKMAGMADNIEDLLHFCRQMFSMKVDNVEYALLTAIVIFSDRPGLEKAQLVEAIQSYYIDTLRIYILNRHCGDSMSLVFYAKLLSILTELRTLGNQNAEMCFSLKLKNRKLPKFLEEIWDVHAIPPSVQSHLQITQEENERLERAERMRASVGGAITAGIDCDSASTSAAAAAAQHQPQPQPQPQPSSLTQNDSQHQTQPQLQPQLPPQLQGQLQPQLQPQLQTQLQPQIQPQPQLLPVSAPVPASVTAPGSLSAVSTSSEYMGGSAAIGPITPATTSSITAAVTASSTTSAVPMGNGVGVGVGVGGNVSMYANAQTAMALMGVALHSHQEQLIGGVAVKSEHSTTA

[2] = target: T2, Endogenous ecdysone receptor of Sch-2 cells (EcR) (Drosophila melanogaster) (UniProt P34021); test: cell_activity; settings: 20-OH ecdysone 2e-6 M, beta-galactosidase reporter
T2 sequence: T1 sequence

| Sequence | binding signal [1] | activity (fold induction by ecdysone) [2] |
| --- | --- | --- |
| TCGAGAGACAAGGGTTCAATGCACTTGTCCAATG / TCGACATTGGACAAGTGCATTGAACCCTTGTCTC | 1000 |  |
| TCGAGAGACAAGGGTTCAATGCACTTGTCCAATG / TCGACATTGGACAAGTGCATTGAACCCTTGTCTC [pEcRE/Adh/betagal reporter, 7 x EcRE upstream of Adh -34+53] |  | 2000 |
